Patent US20180044393A1 (INSERM INSTITUT NATIONAL DE LA SANT ET DE LA RECHERCHE M …, published 2018)
Numbering of substitutions follows the chain as printed. Positions of bridges follow the written chain, without caps; N, C: chain ends. No end group written: not given here. *: point of attachment. 125I = [125I]*

Assays:
Assay in all cases: 125I-OxA binding on CHO-S cells expressing the OX1R mutant
OX1R I98A = target: T1, OX1R I98A (human, UniProt O43613 1-425)
T1 construct: site-directed mutant (TM2) stably expressed in CHO-S cells; not shown: YFP from vector pEYFP-N2 fused at the C-terminus
T1 chain: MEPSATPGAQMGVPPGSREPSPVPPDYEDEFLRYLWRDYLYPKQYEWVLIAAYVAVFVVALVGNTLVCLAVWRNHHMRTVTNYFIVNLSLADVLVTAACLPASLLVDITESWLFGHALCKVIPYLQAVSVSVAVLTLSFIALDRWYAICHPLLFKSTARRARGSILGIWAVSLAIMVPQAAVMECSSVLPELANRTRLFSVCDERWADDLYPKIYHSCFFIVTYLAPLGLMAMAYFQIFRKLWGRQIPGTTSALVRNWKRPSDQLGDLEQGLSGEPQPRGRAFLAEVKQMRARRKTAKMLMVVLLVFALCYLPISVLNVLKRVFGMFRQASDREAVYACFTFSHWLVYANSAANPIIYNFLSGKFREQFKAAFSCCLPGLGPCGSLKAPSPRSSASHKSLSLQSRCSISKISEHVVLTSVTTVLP
Method: (§1) CHO—S cells expressing recombinant native or mutated OX1R were grown as previously described (El Firar et al., 2009) and maintained at 37° C. in a humidified 5% CO₂/air incubator. ¹²⁵I-orexia-A (74 TBq/mmol) was prepared as previously described (El Firar et al., 2009). […] Free peptides were removed by 2 cell washing cycles with PBS. […] Data were analyzed using the GraphPad software (http://www.graphpad.com).
(§2) All residues of OX1R fulfilling this condition were mutated to alanine by site-directed mutagenesis (Table II).

OX1R Y124A = target: T2, OX1R Y124A (human, UniProt O43613 1-425)
T2 construct: site-directed mutant (TM3) stably expressed in CHO-S cells; not shown: YFP from vector pEYFP-N2 fused at the C-terminus
T2 chain: T1 chain with A98I, Y124A
Method: as §1, §2

OX1R Y348A = target: T3, OX1R Y348A (human, UniProt O43613 1-425)
T3 construct: site-directed mutant (TM7) stably expressed in CHO-S cells; not shown: YFP from vector pEYFP-N2 fused at the C-terminus
T3 chain: T1 chain with A98I, Y348A
Method: as §1, §2

OX1R Y211A = target: T4, OX1R Y211A (human, UniProt O43613 1-425)
T4 construct: site-directed mutant (TM5) stably expressed in CHO-S cells; not shown: YFP from vector pEYFP-N2 fused at the C-terminus
T4 chain: T1 chain with A98I, Y211A
Method: as §1, §2

binding result (OX1R I98A): binds
binding result (OX1R Y124A): binds
binding result (OX1R Y348A): binds
binding result (OX1R Y211A): binds
Binder: QPLPDCCRQKTCSCRLY(125I)ELLHGAGNHAAGILTL (peptide, UniProt O43612 34-66, looked up, disulfide 6-12, 7-14; not fully specified (residue 1, C-terminus), mature; also called OxA) [125I-orexin-A]
